# Laboratory results reported in US20100239588A1 (SHANGHAI NATIONAL ENGINEERING RESEARCH CENTER OF ANTIBODY …, published 2010).
# Ends that are not written are not given here.
# T1: phage clone 5F12
# T1 construct: not shown: phage coat protein carrying the 12-mer (NEB Ph.D.-12 library)
# T1 peptide: DVYWLMPDPPTS
# T2: phage clone 5D2
# T2 construct: The sentence also calls it a 'synthetic short peptide'; not shown: phage coat protein carrying the 12-mer (NEB Ph.D.-12 library)
# T2 peptide: GTSTEVWLAPDP
# T3: KLH-5F12 (also: coupled to KLH (site and chemistry not given here))
# T3 construct: Synthetic 5F12 peptide as a KLH conjugate, spotted in the dot blot; also called short peptide 5F12 coupled to KLH
# T3 peptide: DVYWLMPDPPTS
# Legend:
# phage clone 5F12 = target: T1, phage clone 5F12; assay: phage clone panned on an antibody-coated plate, eluted titer
# phage clone 5D2 = target: T2, phage clone 5D2; assay: as above
# human OPN protein [1] = target: T4, human OPN protein (human, UniProt P10451 17-314, limits assumed); assay: western blot
# T4 construct: also called hOPN; human osteopontin
# T4 sequence (P10451 17-314 limits assumed): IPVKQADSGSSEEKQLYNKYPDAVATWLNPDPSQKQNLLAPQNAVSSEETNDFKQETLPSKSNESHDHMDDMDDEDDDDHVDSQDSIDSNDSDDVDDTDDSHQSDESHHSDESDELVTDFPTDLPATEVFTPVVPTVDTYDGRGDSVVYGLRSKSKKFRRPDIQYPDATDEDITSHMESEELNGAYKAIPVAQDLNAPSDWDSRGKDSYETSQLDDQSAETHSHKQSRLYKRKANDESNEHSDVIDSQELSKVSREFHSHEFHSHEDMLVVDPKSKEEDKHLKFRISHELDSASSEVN
# KLH-5F12 = target: T3, KLH-5F12; assay: dot blot, 10 ng dots of KLH peptide
# Description: Dot-blot assay was as follows: three dots of 3×10 ng KLH-4B5 (irrelevant control) and KLH-5F12 respectively, were pointed. Each short peptide obtained in experiment V-4 was used to hybrid with three different antibodies. After being blocked and washed, the membrane was reacted with primary antibody at room temperature for 1 hour. Then, the membrane was washed again, and reacted with HRP-labeled anti-mouse secondary antibody at room temperature for 1 hour. After being washed, the membrane was pressed and exposed.
# human OPN protein [2] = target: T4, human OPN protein; assay: western blot, 5 ug hOPN per lane
# Description: SDS-PAGE (10%) electrophoresis was carried out (5 ug hOPN/lane). hOPN was transferred to nitrocellulose membrane by 360 mA constant current for 1 hour.
binding result (phage clone 5F12),binding result (phage clone 5D2),binding result (human OPN protein [1]),binding result (KLH-5F12),binding result (human OPN protein [2]),Binder
binds,binds,binds,binds,–,"mouse anti-human OPN monoclonal antibody 23C3 (antibody, V domains shown, also called 23C3 mAb; 23C3 monoclonal antibody) VH: EVQLVESGGGLVQPKGSLKISCAASGFTFNIYAMNWVRQAPGKGLEWVARIRSQSNNYTTYYADSVKDRFTISRDDSQSMLYLQMNNLKTEDTAMYYCVRQMGDYWGQGTTLTVSS VL: YIQMTQSPASLSVSVGETVTITCRASENIYSFLAWYQQKQGKSPQLLVYAATNLADGVPSRFSGSGSGTQFSLKINSLQSEDFGTYYCQHFWGTPFTFGSGTKLEIKR"
–,–,–,–,binds,"anti-OPN humanized antibody h23C3 (h23C3Hb/h23C3Lb) (antibody, human IgG1, kappa, V domains shown, Humanized variable regions that retain seven murine framework residues, joined to the human CH and CL by the same method as for h23C3Ha/h23C3La; The signal peptide is left out; also called h23C3VHb/h23C3VLb) VH: EVQLVESGGGLVQPGGSLRLSCAASGFTFNIYAMNWVRQAPGKGLEWVARIRSQSNNYTTYYADSVKDRFTISRDDSKNSLYLQMNSLKTEDTAVYYCVRQMGDYWGQGTLVTVSS VL: YIQMTQSPSSLSASVGDRVTITCRASENIYSFLAWYQQKPGKAPQLLVYAATNLADGVPSRFSGSGSGTQFTLTISSLQPEDFATYYCQHFWGTPFTFGQGTKLEIKR"
–,–,–,–,binds,"anti-OPN chimeric antibody c23C3 (antibody, human IgG1, kappa, V domains shown, 23C3 VH and VL joined by overlap PCR to the cloned human CH (pGEM-T/CH) and CL (pGEM-T/CL); also called C23C3 chimeric antibody; chimeric monoclonal antibody c23C3) VH: EVQLVESGGGLVQPKGSLKISCAASGFTFNIYAMNWVRQAPGKGLEWVARIRSQSNNYTTYYADSVKDRFTISRDDSQSMLYLQMNNLKTEDTAMYYCVRQMGDYWGQGTTLTVSS VL: YIQMTQSPASLSVSVGETVTITCRASENIYSFLAWYQQKQGKSPQLLVYAATNLADGVPSRFSGSGSGTQFSLKINSLQSEDFGTYYCQHFWGTPFTFGSGTKLEIKR"
